By Kd is commonly meant the constant that tells how readily two partners part at equilibrium.

This experiment deals with T1, Epidermal growth factor receptor (UniProt P00533 25-645).
T1 construct: Epidermal growth factor receptor (EGFR), bought from Sigma-Aldrich; Coupled by its amines to the dextran of a CM5 chip (about 12,000 RU) for both SPR and AFM; also called EGFR; source: bought: Sigma-Aldrich
As to the kind of experiment: SPR; Biacore X; EGFR amine-coupled to a CM5 chip, ligands flowed over; room temperature; running buffer PBS; flow 10 ul/min; regeneration 50 mM NaOH; channel without EGFR as control; EGF 0.25-4 uM, GE11 10-160 uM; KD from BIAEvaluation software. Particulars: both partners purified.

B1: Peptide GE11 (peptide)
peptide: YHWYGYTPQNVI
notes: In solution for SPR; for AFM coupled to succinimide-modified silicon nitride tips; source: synthetic peptide, custom synthesized by Millipore
B1 showed a Kd of 459 µM.

The values are drawn from article PMC4344348, “Quantitative Analysis of Ligand-EGFR Interactions: A Platform for Screening Targeting Molecules” (PLoS ONE, 2015).
